Assay results: publication PMC10401710, “Cell Surface Labeling and Detection of Protein Tyrosine Kinase 7 via Covalent Aptamers”

T1: PTK7-CFP (UniProt Q13308)
T1 sequence: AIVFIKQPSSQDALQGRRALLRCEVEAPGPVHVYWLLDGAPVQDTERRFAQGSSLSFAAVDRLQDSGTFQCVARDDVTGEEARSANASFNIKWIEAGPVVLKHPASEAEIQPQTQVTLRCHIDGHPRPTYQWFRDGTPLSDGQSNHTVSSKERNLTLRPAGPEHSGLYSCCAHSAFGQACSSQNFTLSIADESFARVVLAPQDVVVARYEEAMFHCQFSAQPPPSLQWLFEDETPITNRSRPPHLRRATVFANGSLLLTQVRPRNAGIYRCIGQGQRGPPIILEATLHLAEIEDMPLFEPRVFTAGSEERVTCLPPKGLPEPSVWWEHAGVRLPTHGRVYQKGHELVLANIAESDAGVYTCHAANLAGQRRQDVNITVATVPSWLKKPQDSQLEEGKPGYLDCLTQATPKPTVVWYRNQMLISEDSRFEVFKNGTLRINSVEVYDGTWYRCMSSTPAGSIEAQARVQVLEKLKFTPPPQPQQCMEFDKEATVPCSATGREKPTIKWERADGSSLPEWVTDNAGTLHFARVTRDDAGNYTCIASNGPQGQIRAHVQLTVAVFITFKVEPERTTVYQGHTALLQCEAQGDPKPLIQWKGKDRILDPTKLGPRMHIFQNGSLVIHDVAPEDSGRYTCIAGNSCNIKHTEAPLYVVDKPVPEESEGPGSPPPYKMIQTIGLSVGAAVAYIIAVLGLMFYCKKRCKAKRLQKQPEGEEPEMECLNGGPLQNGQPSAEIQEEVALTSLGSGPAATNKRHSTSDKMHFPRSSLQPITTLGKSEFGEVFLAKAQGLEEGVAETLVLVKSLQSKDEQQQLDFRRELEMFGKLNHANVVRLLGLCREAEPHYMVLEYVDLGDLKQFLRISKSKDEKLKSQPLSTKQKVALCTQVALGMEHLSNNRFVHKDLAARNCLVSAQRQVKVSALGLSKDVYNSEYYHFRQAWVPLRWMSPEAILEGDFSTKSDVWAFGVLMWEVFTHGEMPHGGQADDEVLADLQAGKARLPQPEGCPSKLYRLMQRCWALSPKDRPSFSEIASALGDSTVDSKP

T2: PTK7 (recombinant, R&D Biosystems NC2081082) (UniProt Q13308 31-703)
T2 sequence: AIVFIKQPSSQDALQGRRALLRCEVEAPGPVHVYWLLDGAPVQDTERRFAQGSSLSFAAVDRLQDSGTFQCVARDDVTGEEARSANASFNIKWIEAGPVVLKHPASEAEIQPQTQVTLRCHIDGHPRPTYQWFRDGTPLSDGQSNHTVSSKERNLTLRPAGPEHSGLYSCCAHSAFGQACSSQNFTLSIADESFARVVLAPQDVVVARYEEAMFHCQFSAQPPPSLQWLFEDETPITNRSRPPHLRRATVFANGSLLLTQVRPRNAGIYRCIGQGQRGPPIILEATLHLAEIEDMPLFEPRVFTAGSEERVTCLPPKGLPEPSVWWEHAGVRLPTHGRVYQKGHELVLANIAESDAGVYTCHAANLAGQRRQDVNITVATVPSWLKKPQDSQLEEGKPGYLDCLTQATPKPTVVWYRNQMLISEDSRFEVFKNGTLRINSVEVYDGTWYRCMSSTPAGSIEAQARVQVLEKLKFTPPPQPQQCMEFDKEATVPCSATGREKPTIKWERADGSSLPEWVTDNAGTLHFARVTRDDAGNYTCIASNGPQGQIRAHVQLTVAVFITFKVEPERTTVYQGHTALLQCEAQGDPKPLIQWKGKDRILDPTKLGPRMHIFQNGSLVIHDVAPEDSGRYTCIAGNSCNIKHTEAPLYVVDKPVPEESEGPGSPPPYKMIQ


Key:
PTK7-CFP = biological target: T1, PTK7-CFP; experiment: covalent biotin transfer on cells, SA-HRP blot; conditions: EC50 of label transfer, not equilibrium Kd; transfected HEK293T, 1 h, 5 mM MgCl2; T27 replaced by 5-octadiynyl-dU, clicked to azide-tethered N-acyl sulfonamide biotin electrophile 1; DPBS with 5 mM MgCl2, 4.5 g/L glucose, pH 7.4, 37 C, 1 h (cells: plus 0.1 mg/mL yeast tRNA); read-out is proximity-driven covalent labeling, no equilibrium Kd …
[1] = biological target: T2, PTK7 (recombinant, R&D Biosystems …); experiment: covalent biotin transfer, SA-HRP blot; EC50 of label transfer, not equilibrium Kd; 100 nM PTK7, 1 h, 37 C, 5 mM MgCl2; DPBS with 5 mM MgCl2, 4.5 g/L glucose, pH 7.4, 37 C, 1 h (cells: plus 0.1 mg/mL yeast tRNA); read-out is proximity-driven covalent labeling, no equilibrium Kd measured; conditions: protein: commercial; label: transferable biotin; stem-loop (UNIFold prediction)

Molecule	K half (PTK7-CFP)	apparent K (half saturation) [1]
ATCTAACTGCTGCGCCGCCGGGAAAATACTGTACGGTTAGA [sgc8c(27)-1]	251 nM	
ATCTAACTGCTGCGCCGCCGGGAAAATACTGTACGGTTAGA (structured_DNA, T27 replaced by 5-octadiynyl-dU, clicked to azide-tethered N-acyl sulfonamide biotin electrophile 1) [sgc8c(27)-1]		203 nM
